The results in this text go back to patent US20070020327A1.

In one assay the target is HLA-A*2401 (human). In words: competition with 125I-labeled probe peptide for purified HLA, gel filtration. To be noted: scale: ratio.
Consider “PSM peptide … (position 621, 9 amino acids)”, for which the binding affinity ratio (relative to standard peptide) stood at 0.001.

As to “PAP peptide … (position 83, 10 amino acids)”, the binding affinity ratio (relative to standard peptide) is 0.0067.

Turning to “PSA peptide … (position 98, 9 amino acids)”, the binding affinity ratio (relative to standard peptide) amounted to 0.0001.

Another assay has as its target HLA-A*2401 (human). In words: competitive inhibition of 125I-labelled standard peptide binding to purified HLA, gel filtration.
Conditions: not given
Take “PSM peptide … (position 638, 9 amino acids)”: the binding affinity ratio (IC50 of standard peptide / IC50 of test peptide) came to 0.0001.

“PSM peptide … (position 178, 9 amino acids)”: the binding affinity ratio (IC50 of standard peptide / IC50 of test peptide) came to 0.77.

Turning to “PAP peptide … (position 309, 10 amino acids)”, the binding affinity ratio (IC50 of standard peptide / IC50 of test peptide) stood at 0.024.

On to “PAP peptide … (position 183, 9 amino acids)”, for which the binding affinity ratio (IC50 of standard peptide / IC50 of test peptide) worked out at 0.11.

In a further assay the target is HLA-A*2401 (human). In words: inhibition of binding of a 125I-labelled standard peptide to purified HLA, gel filtration.
Conditions: not given
On the technique in general: Size exclusion chromatography separates by hydrodynamic size, large species first.
For “PAP peptide … (position 205, 9 amino acids)”, the binding affinity ratio (IC50 of the standard peptide / IC50 of the test peptide) amounted to 0.0024.

Consider “PSA peptide … (position 190, 9 amino acids)”, for which the binding affinity ratio (IC50 of the standard peptide / IC50 of the test peptide) was 0.031.

As to “PSM peptide … (position 606, 9 amino acids)”, the binding affinity ratio (IC50 of the standard peptide / IC50 of the test peptide) is 12.

As to “PAP peptide … (position 123, 9 amino acids)”, the binding affinity ratio (IC50 of the standard peptide / IC50 of the test peptide) was 0.0033.

Regarding “PAP peptide … (position 22, 10 amino acids)”, the binding affinity ratio (IC50 of the standard peptide / IC50 of the test peptide) amounted to 0.0045.

For “PAP peptide … (position 123, 10 amino acids)”, the binding affinity ratio (IC50 of the standard peptide / IC50 of the test peptide) came to 0.014.

A further assay has as its target HLA-A*2401 (human). In words: competition with a 125I-labelled standard peptide for purified HLA, gel filtration.
Conditions: not given
In the case of “PSA peptide … (position 2, 9 amino acids)”, the binding affinity ratio (IC50 of the standard peptide / IC50 of the test peptide) amounted to 2.1.

On to “PSA peptide … (position 9, 9 amino acids)”, for which the binding affinity ratio (IC50 of the standard peptide / IC50 of the test peptide) stood at 0.11.

For “PSM peptide … (position 624, 10 amino acids)”, the binding affinity ratio (IC50 of the standard peptide / IC50 of the test peptide) amounted to 3.2.

In the case of “PSA peptide … (position 9, 10 amino acids)”, the binding affinity ratio (IC50 of the standard peptide / IC50 of the test peptide) was found to be 0.36.

As for “PSA peptide … (position 2, 10 amino acids)”, the binding affinity ratio (IC50 of the standard peptide / IC50 of the test peptide) was 0.0062.

“PAP peptide … (position 41, 10 amino acids)”: the binding affinity ratio (IC50 of the standard peptide / IC50 of the test peptide) stood at 0.0005.

The target in a further assay is HLA-A*2401 molecule, purified HLA class I (human). In words: competition with 125I-labelled probe peptide for purified HLA, gel filtration; relative binding.
Conditions: not given
Take “PSA peptide … (position 224, 9 amino acids)”: the binding affinity ratio (IC50 of the standard peptide / IC50 of the test peptide) was 0.0001.

As for “PAP peptide … (position 96, 9 amino acids)”, the binding affinity ratio (IC50 of the standard peptide / IC50 of the test peptide) was 0.26.

With “PAP peptide … (position 62, 9 amino acids)”, the binding affinity ratio (IC50 of the standard peptide / IC50 of the test peptide) worked out at 0.0013.

In the next assay the target is HLA-A*2401 (human). In words: competition with a 125I-labelled standard peptide for purified HLA, gel filtration; value relative to the standard peptide.
Conditions: not given
For the substance “PAP peptide … (position 302, 9 amino acids)”, the binding affinity ratio (IC50 of the standard peptide / IC50 of the test peptide) came out at 0.032.

The target in the next assay is HLA-A*2401 (human). In words: competition with 125I-labelled standard peptide for purified HLA, gel filtration; relative binding.
Conditions: not given
Turning to … (PAP, position 96) (peptide), the binding affinity ratio (IC50 of standard peptide / IC50 of test peptide) came to 0.26.

… (PSM, position 624) (peptide): the binding affinity ratio (IC50 of standard peptide / IC50 of test peptide) came out at 3.2.

Consider … (PSA, position 224) (peptide), for which the binding affinity ratio (IC50 of standard peptide / IC50 of test peptide) was 0.0001.

On to … (PSA, position 54) (peptide), for which the binding affinity ratio (IC50 of standard peptide / IC50 of test peptide) is 0.0007.

Take … (PSM, position 178) (peptide): the binding affinity ratio (IC50 of standard peptide / IC50 of test peptide) was determined as 0.77.

A further assay concerns the target HLA-A*2401 (human). In words: competition with a 125I-labelled standard peptide for purified HLA class I, bound and free peptide separated by gel filtration.
Conditions: not given
Take “Kallikrein (hK2) peptide …, position 156, 10 amino acids”: the binding affinity ratio (IC50 of the standard peptide / IC50 of the test peptide) came to 0.0001.

In the case of “PSA peptide …, position 244, 10 amino acids”, the binding affinity ratio (IC50 of the standard peptide / IC50 of the test peptide) was determined as 0.055.

For the substance “PSA peptide …, position 152, 10 amino acids”, the binding affinity ratio (IC50 of the standard peptide / IC50 of the test peptide) was determined as 0.0001.

As for “Kallikrein (hK2) peptide …, position 248, 10 amino acids”, the binding affinity ratio (IC50 of the standard peptide / IC50 of the test peptide) turned out to be 0.055.

In the case of “PSM peptide …, position 409, 10 amino acids”, the binding affinity ratio (IC50 of the standard peptide / IC50 of the test peptide) came to 0.054.

The target of a further assay is HLA-A*2401 (human). Nature of the assay: competition with 125I-labelled standard peptide for purified HLA, gel filtration.
Conditions: not given
For “PAP peptide … (position 17, 9 amino acids)”, the binding affinity ratio (IC50 of the standard peptide / IC50 of the test peptide) stood at 0.0016.

As for “PSM peptide … (position 582, 10 amino acids)”, the binding affinity ratio (IC50 of the standard peptide / IC50 of the test peptide) was 0.0002.

As for “… (PAP, position 318, 9 amino acids) (peptide)”, the binding affinity ratio (IC50 of the standard peptide / IC50 of the test peptide) is 2.5.

Regarding “… (PAP, position 70, 10 amino acids) (peptide)”, the binding affinity ratio (IC50 of the standard peptide / IC50 of the test peptide) amounted to 0.0022.

For the substance “… (PAP, position 213, 9 amino acids) (peptide)”, the binding affinity ratio (IC50 of the standard peptide / IC50 of the test peptide) came out at 0.44.

Consider “PSM peptide … (position 32, 10 amino acids)”, for which the binding affinity ratio (IC50 of the standard peptide / IC50 of the test peptide) is 0.0026.

As to “… (PSM, position 668, 9 amino acids) (peptide)”, the binding affinity ratio (IC50 of the standard peptide / IC50 of the test peptide) stood at 0.0075.

Consider “… (PSM, position 74, 10 amino acids) (peptide)”, for which the binding affinity ratio (IC50 of the standard peptide / IC50 of the test peptide) was 0.23.

For “PAP peptide … (position 17, 10 amino acids)”, the binding affinity ratio (IC50 of the standard peptide / IC50 of the test peptide) was determined as 0.0007.

For “… (PSA, position 96, 11 amino acids) (peptide)”, the binding affinity ratio (IC50 of the standard peptide / IC50 of the test peptide) amounted to 0.12.

For “… (PSM, position 227, 9 amino acids) (peptide)”, the binding affinity ratio (IC50 of the standard peptide / IC50 of the test peptide) is 0.44.

On to “PSM peptide … (position 31, 9 amino acids)”, for which the binding affinity ratio (IC50 of the standard peptide / IC50 of the test peptide) was 0.019.

In the case of “PSM peptide … (position 565, 10 amino acids)”, the binding affinity ratio (IC50 of the standard peptide / IC50 of the test peptide) amounted to 1.1.

Take “PAP peptide … (position 23, 9 amino acids)”: the binding affinity ratio (IC50 of the standard peptide / IC50 of the test peptide) was found to be 0.0017.
